The text below walks through data of US20130143227A1 (University of Texas, published 2013).

In general, IC50 refers to the concentration that inhibits the measured activity by half.

T1: Myc-LGR5 (human LGR5, predicted mature form aa21-907, N-terminal Myc tag), expressed on HEK293 cells (human, UniProt O75473 22-907)
T1 construct: Residues 21-907 are counted on NP-003658
T1 sequence: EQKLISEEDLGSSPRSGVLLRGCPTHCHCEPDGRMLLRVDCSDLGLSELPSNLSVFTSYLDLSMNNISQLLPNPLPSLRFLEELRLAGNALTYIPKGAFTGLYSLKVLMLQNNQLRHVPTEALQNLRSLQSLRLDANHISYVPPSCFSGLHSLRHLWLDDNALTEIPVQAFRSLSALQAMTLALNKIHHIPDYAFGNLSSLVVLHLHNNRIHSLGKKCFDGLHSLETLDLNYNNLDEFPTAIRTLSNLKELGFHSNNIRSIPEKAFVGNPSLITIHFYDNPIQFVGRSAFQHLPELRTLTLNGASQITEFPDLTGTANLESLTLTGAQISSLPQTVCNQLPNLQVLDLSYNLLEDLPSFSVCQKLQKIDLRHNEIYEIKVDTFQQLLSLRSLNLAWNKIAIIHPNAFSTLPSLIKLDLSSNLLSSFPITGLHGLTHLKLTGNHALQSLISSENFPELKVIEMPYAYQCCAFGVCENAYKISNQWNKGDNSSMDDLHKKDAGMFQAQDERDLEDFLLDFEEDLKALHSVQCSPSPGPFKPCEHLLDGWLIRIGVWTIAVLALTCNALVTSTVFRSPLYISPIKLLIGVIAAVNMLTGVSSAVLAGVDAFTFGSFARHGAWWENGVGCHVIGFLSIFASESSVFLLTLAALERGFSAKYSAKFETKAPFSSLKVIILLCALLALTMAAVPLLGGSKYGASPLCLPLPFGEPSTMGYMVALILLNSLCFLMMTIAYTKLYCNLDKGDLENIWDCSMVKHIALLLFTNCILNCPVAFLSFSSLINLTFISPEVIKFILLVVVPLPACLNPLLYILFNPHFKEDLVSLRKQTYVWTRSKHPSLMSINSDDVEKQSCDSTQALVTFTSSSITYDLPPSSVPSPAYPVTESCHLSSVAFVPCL

T2: FLAG-LGR6 (human LGR6, predicted mature form aa25-967, N-terminal FLAG tag), expressed on HEK293 cells (human, UniProt Q9HBX8 26-967)
T2 sequence: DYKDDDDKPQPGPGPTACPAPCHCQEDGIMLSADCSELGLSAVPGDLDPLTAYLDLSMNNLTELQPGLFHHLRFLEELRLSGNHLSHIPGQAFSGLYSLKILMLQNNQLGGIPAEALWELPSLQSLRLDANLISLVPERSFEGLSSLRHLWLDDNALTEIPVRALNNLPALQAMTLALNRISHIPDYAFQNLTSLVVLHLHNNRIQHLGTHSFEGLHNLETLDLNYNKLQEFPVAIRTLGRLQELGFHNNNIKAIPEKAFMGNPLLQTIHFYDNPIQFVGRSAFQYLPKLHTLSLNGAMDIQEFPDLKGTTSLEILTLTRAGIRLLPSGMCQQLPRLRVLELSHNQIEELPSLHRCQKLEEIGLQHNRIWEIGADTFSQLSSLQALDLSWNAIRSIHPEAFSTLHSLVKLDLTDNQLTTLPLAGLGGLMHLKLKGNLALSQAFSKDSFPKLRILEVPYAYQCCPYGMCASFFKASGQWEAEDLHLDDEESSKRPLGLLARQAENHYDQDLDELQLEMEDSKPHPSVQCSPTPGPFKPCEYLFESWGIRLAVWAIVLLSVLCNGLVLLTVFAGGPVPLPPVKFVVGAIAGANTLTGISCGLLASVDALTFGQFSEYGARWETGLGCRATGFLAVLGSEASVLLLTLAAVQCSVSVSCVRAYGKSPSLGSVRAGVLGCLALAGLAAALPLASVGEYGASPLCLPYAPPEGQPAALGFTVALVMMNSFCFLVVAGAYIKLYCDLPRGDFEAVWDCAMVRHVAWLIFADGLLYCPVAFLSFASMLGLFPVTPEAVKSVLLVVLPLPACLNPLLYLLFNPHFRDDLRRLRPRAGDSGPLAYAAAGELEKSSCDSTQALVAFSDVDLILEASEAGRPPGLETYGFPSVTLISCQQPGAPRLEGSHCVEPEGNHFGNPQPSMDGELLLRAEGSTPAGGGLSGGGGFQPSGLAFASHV

B1: recombinant human RSPO3 (ligand)
chain: QNASRGRRQRRMHPNVSQGCQGGCATCSDYNGCLSCKPRLFFALERIGMKQIGVCLSSCPSGYYGTRYPDINKCTKCKADCDTCFNKNFCTKCKSGFYLHLGKCLDNCPEGLEANNHTMECVSIVHCEVSEWNPWSPCTKKGKTCGFKRGTETRVREIIQHPSAKGNLCPPTNETRKCTVQRKKCQKGERGKKGRERKRKKPNKGESKEAIPDSKSLESSKEIPEQRENKQQQKKRKVQDKQKSVSVSTVH
notes: Bought from R&D Systems; also called R-spondin 3
B2: recombinant human RSPO4 (ligand)
chain: LNRRKKQVGTGLGGNCTGCIICSEENGCSTCQQRLFLFIRREGIRQYGKCLHDCPPGYFGIRGQEVNRCKKCGATCESCFSQDFCIRCKRQFYLYKGKCLPTCPPGTLAHQNTRECQGECELGPWGGWSPCTHNGKTCGSAWGLESRVREAGRAGHEEAATCQVLSESRKCPIQRPCPGERSPGQKKGRKDRRPRKDRKLDRRLDVRPRQPGLQP
notes: Bought from R&D Systems; also called R-spondin 4
B3: recombinant human RSPO1 (ligand, UniProt Q2MKA7 21-263, looked up)
chain: SRGIKGKRQRRISAEGSQACAKGCELCSEVNGCLKCSPKLFILLERNDIRQVGVCLPSCPPGYFDARNPDMNKCIKCKIEHCEACFSHNFCTKCKEGLYLHKGRCYPACPEGSSAANGTMECSSPAQCEMSEWSPWGPCSKKQQLCGFRRGSEERTRRVLHAPVGDHAACSDTKETRRCTVRRVPCPEGQKRRKGGQGRRENANRNLARKESKEAGAGSRRRKGQQQQQQQGTVGPLTSAGPA
notes: Bought from R&D Systems; also called R-spondin 1
B4: recombinant human RSPO2 (ligand, UniProt Q6UXX9 22-243, looked up)
chain: QGNRWRRSKRASYVSNPICKGCLSCSKDNGCSRCQQKLFFFLRREGMRQYGECLHSCPSGYYGHRAPDMNRCARCRIENCDSCFSKDFCTKCKVGFYLHRGRCFDECPDGFAPLEETMECVEGCEVGHWSEWGTCSRNNRTCGFKWGLETRTRQIVKKPVKDTILCPTIAESRRCKMTMRHCPGGKRTPKAKEKRNKKKKRKLIERAQEQHSVFLATDRANQ
notes: Bought from R&D Systems; also called R-spondin 2

The first test concerns the target T1, Myc-LGR5 (human LGR5, predicted mature …). In words: whole-cell fluorescence competition binding, displacement of mRSPO1-Fc (~5 nM) from HEK293 cells expressing Myc-LGR5. Here is the method: A fluorescence-based whole-cell competition binding assay was developed to determine whether purified, recombinant RSP01-4 could compete with mRSPO1-Fc for binding to LGR4-6. HEK293 cells stably expressing Myc-LGR4, Myc-LGR5, or FLAG-LGR6 were seeded into poly-D-lysine-coated 96-well black/clear bottom plates (Becton Dickinson) at ˜60,000 cells/well. After overnight culturing, the plates were chilled on ice for 5 min, media were removed from each well, and the cells were washed twice with cold PBS. The recombinant RSPOs under investigation were diluted in 3-fold serial dilutions in cold OPTI-MEM®+0.5% BSA and added onto the cells at 50 μl/well, followed immediately by the addition of equal volume of mRSPO1-Fc diluted by 1:100 in the same buffer. The cells were the incubated for 3.5 hrs at 4° C. with gentle agitation, followed by three quick washes with cold PBS. The cells were then fixed in 4% paraformaldehyde/PBS for 15 min at room temperature and washed 3× with PBS. The cells were further incubated with Alexa Fluor® 647-labeled goat anti-mouse IgG (H+L) (Invitrogen, diluted by 1:200) in OPTI-MEM®+0.5% BSA for 1 hr at room temperature. The cells were washed thrice with PBS and fluorescence intensity was measured using a Tecan M1000 plate reader with excitation at 630 nm and emission at 670 nm. All experiments were performed at least twice with quadruplicate replicates in each experiment. HEK293 cells stably expressing Myc-LGR4 (shown in FIG. 4B), Myc-LGR5 (shown in FIG. 4C), or FLAG-LGR6 (shown in FIG. 4D) were incubated with mRSPO1Fc at ˜5 nM plus serial dilutions of purified recombinant RSPO1-4 for 3-4 hrs at 4° C. Binding of mRSPO1-Fc was detected with Alexa Fluor® 647-labeled anti-mouse IgG. Maximum specific binding is defined by the difference between the data of with and without mRSPO1-Fc which is approximately 50% of total binding in general. All error bars are S.E.M. (n=4). […] As shown in FIGS. 4B-D, RSPO1-4 were able to completely displace the binding of mRSPO1-Fc to LGR4-6 with IC50's in the nM range, the one exception was the μM IC50's for RSPO3 (SEQ ID NO:46; SEQ ID NO:47) and RSPO4 (SEQ ID NO:48; SEQ ID NO:49) binding to LGR4.
In the case of B1, the IC50 is 2.1 nM. For B2, the IC50 is 11 nM. On the same count and under the same terms, for B3 the value was 4 nM. For the molecule B4, the IC50 was 0.5 nM.

The target of another test is T2, FLAG-LGR6 (human LGR6, predicted mature …). Kind of test: cell-based or functional assay.
On to B3, for which the “fold change of EC50 against vector-transfected cells, β-catenin reporter” value was 20 fold. In the case of B4, the “fold change of EC50 against vector-transfected cells, β-catenin reporter” value was 20 fold.
